Assay results from paper PMC4032163.

Columns and labels:
[1] = molecular target: BG505 SOSIP.664 gp140 trimer (HIV-1 subtype A transmitted/founder virus BG505); test: native gel or EMSA; BN-PAGE, Coomassie blue staining, of 2G12-affinity-purified Env proteins and of SEC-purified trimers from stable cell lines and transient transfection
[2] = molecular target: uncleaved CZA97.012 gp140 (HIV-1 subtype C, CZA97.012 | not stated); test: SEC

Substance | stoichiometry N [1] | stoichiometry N [2]
BG505 SOSIP.664 gp140 trimer (complex) | 3 | –
uncleaved CZA97.012 gp140 | – | 3
